The experiment concerns the target T1, Human, recombinant IL-4R-Fc protein (human, UniProt P24394 26-232).
T1 construct: also called immobilized receptor
T1 sequence: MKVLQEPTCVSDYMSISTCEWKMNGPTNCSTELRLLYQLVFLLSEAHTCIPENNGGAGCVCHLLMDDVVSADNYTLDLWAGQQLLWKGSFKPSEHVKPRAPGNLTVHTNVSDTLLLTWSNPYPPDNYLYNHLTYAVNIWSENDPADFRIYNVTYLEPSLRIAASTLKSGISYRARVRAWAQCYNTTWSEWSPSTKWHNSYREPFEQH
The experiment can be described thus: competition ELISA on IL-4R-Fc coated plates; competitor: 10 ng/ml mouse antibody X2/45.

Method: Human, recombinant IL-4R-Fc protein was immobilized on ELISA plates at 100 ng/well followed by blocking of free binding sites.

B1: humanised anti-IL-4R antibody (variable regions SEQ ID NOs: 13 and 14) (antibody, V domains shown)
VH: EVQLVESGGGLVKPGGSLRLSCAASGFTFNTNAMNWVRQAPGKGLEWVARIRSKSNNYATYYADSVKDRFTLSRDDSKNTLYLQMNSLKTEDTAVYYCTRDRGWGAMDYWGQGTTVTVSS
VL: DIQMTQSPSSLSASVGDRVTITCSASQDINNYLNWYQQKPGKAPKLLIYYTSSLHSGVPSRFSGSGSGTDFTLTISSLQPEDFATYYCQQFSNLPWTFGGGTKLEIK
notes: Full length antibody made in Hek 293T cells; light chain of kappa type; also called humanised antibody; humanised version of X2/45
In the case of B1, the binding result is recorded as “binds”.

The record behind these values is patent US20110008326A1 (published 2011).
